B1: NRP(B/D/E)3 (natural protein, UniProt Q39211 1-319, looked up)
chain: MDGATYQRFPKIKIRELKDDYAKFELRETDVSMANALRRVMISEVPTVAIDLVEIEVNSSVLNDEFIAHRLGLIPLTSERAMSMRFSRDCDACDGDGQCEFCSVEFRLSSKCVTDQTLDVTSRDLYSADPTVTPVDFTIDSSVSDSSEHKGIIIVKLRRGQELKLRAIARKGIGKDHAKWSPAATVTFMYEPDIIINEDMMDTLSDEEKIDLIESSPTKVFGMDPVTRQVVVVDPEAYTYDEEVIKKAEAMGKPGLIEISPKDDSFIFTVESTGAVKASQLVLNAIDLLKQKLDAVRLSDDTVEADDQFGELGAHMRGG
notes: NRP(B/D/E)3, subunit 3 shared by Pol II, IV and V, Arabidopsis thaliana; also called NRPE(B/D/E)3; source: endogenous, A. thaliana T87 cells, co-purified with 3xFLAG-10xHis-NRPE1
B2: NRP(A/B/C/D/E)12 (natural protein)
chain: not shown
notes: NRP(A/B/C/D/E)12, subunit 12 shared by Pol I-V, Arabidopsis thaliana; source: endogenous, A. thaliana T87 cells, co-purified with 3xFLAG-10xHis-NRPE1
B3: KOW domain-containing transcription factor 1 (KTF1), residues 1-712, the conserved N-terminal domain (domain or fragment, Arabidopsis thaliana, UniProt F4JW79 1-712, looked up)
chain: MDRKGKGKQVAGSDSYSGGQKRKNSVEFRDEGLRIKKRKNPEVLQFFEESAEVGYYGGSSDEDDDGLGFLNDMEDEPEVEESSKAGKGEKGKSSFVFPKEEDLNEEEFDRIMEERYKPGSGFLRYADDDIKDAIEMDALAPTSKDPPIWKVKCAIGRERRSVFCLMHKFVELRKIGTKLEIISVFSVDHVKGFIFIEADKEHDVLEACKSLVGIYATRMVLLPKAETPNLLTVQKKTKKVSEGTWARVKNGKYKGDLAQIVAVSDTRNKALIKLIPRIDIQALTQKYGGGVTVQKGQTPAPRLISSSELEEFRPLIQVRRDRDTGITFEHLDSLMLKDGYLYKKVSLDSISSWGVIPTKDELLKFTPVDRKETGDVEWISEIYGEERKKKILPTCREGGKGEGSGGGKGEGSGGGKGEGSRGGKGEGSSDFKSESSYELYNLVCFSRKDFGLIVGVDDKGDGYKVLKEGIDGPVVVTVGKKEMQNGPFDSKFTALDLNKKQISVNDVVKISKGPSEGKQGVVRQVYRGIIFLYDESEEENGGYFCCKSQSCEKVKLFTEESNEKTGGFDGTAFEDFVSSPKSPLSPEKEWQPRERYNSSNQGDIGSTYSIGQKLRIRVGPLKGYLCRVIALRYSDVTVKLDSQHKIFTVKSEHLAEVRDRNTVLSTSGDAGTGSFQPFGMLGTESSTGDWAIGAGTSSEGGNWNIGGPSTDS
notes: KTF1 (SPT5L), Arabidopsis thaliana, At5g04290, residues 1-712 (NGN, KOW1, KOW4, KOW5; without the C-terminal GW/WG repeats); The modified pETDuet1 vector carries a 6xHis-tagged SUMOstar that was cleaved on the column; Added to Pol V as the heterodimer with SPT4; Only the KOW5 domain is seen in the map; also called SPT5L; truncated KTF1 (1-712)

For assay [1], the target named is B3. The experiment in a line: cryo-EM structure; Pol V, nucleic-acid scaffold and KTF1/SPT4 heterodimer mixed 1:1.2:3 in 20 mM HEPES pH 7.5, 100 mM NaCl, 5 mM MgCl2, 1 mM DTT; complex taken from Superose 6 Increase; maps at 3.2 Å and 4.3 Å, local maps at 3.0 Å and 3.7 Å. The settings on record: both partners purified.
The target in another assay is T1, NRP(D/E)2 (Arabidopsis thaliana (endogenous in T87 …, UniProt Q9LK40 1-1172)).
T1 construct: NRP(D/E)2, second largest subunit shared by Pol IV and Pol V, Arabidopsis thaliana; also called NRP(D/E)2 subunit; source: endogenous, A. thaliana T87 cells, co-purified with 3xFLAG-10xHis-NRPE1
T1 sequence (looked up): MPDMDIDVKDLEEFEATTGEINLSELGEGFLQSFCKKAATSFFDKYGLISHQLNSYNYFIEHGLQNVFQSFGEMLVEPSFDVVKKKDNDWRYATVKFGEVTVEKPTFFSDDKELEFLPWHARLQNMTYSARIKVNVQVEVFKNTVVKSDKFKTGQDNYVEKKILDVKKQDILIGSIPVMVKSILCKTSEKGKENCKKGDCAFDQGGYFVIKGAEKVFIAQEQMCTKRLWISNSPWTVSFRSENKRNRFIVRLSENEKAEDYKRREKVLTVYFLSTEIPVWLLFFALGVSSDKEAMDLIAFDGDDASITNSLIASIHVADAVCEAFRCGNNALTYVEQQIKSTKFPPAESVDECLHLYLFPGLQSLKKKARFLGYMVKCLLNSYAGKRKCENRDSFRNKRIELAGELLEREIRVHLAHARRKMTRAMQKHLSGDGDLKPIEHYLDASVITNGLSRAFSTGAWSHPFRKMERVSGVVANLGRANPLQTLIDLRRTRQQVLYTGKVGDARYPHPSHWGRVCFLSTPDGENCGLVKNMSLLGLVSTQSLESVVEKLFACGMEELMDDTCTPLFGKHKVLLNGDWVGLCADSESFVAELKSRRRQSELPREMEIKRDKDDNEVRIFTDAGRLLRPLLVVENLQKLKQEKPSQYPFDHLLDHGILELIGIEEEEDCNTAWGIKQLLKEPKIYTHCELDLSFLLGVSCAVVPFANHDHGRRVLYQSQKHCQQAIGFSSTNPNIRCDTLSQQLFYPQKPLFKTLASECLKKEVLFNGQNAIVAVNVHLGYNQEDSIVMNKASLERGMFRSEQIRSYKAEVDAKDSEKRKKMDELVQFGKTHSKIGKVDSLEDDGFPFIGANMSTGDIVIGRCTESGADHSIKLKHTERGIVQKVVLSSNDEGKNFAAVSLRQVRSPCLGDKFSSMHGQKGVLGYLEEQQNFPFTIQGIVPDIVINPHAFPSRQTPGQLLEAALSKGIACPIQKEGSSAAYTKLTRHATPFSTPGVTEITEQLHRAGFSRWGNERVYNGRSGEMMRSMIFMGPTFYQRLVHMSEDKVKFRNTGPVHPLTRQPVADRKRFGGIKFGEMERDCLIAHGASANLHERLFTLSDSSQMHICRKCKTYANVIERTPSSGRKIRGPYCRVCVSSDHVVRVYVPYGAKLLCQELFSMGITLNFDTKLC
The description is as above. As to conditions: both partners purified.

The record followed here is PMC10229537, “A cryo-EM structure of KTF1-bound polymerase V transcription elongation complex” (Nature Communications, 2023).

As to B1, the binding result in assay [1] is “binds”.

On to B2, for which the binding result in assay [1] is on record as “binds”.

For the molecule B3, the binding result in the assay with NRP(D/E)2 is “binds”.
